The results in this text go back to patent US20230390320A1 (RZNOMICS, published 2023).

One experiment addresses T1, human PD1 (hPD1) (human, UniProt Q15116 25-288, limits assumed).
T1 construct: Stood in the ELISA as a lysate of cells expressing hPD1
Nature of the experiment: ELISA; lysate of hPD1-expressing cells coated on plate, scFv from stable 293A culture medium. On the technique in general: In an ELISA, binding on a coated surface is turned into a signal by an enzyme label.

The target in the next experiment is T2, mouse PD1 (mPD1) (mouse, UniProt Q02242 25-288, limits assumed).
T2 construct: Stood in the ELISA as a lysate of cells expressing mPD1
T2 sequence (looked up): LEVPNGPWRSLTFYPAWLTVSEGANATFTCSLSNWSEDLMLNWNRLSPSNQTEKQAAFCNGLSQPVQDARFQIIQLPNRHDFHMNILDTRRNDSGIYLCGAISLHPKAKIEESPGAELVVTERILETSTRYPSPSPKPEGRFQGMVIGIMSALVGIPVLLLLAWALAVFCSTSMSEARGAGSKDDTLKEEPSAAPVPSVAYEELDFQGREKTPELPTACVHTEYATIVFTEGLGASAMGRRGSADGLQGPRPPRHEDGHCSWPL
Nature of the experiment: ELISA; lysate of mPD1-expressing cells coated on plate, scFv from stable 293A culture medium.

T1 sequence (Q15116 25-288 limits assumed): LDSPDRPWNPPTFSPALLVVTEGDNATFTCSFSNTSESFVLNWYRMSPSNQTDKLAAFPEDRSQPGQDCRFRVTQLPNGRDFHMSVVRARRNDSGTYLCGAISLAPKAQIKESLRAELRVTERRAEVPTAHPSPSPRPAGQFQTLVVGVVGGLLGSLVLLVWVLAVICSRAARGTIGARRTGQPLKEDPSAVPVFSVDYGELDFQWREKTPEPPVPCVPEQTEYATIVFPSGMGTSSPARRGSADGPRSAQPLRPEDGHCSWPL

B1: scFvPD1(I) (scFv, not shown: small tags and cut ends)
scFv: QVQLVQSGAEVKKPGASVKVSCKASGYTFTAQYMHWVRQAPGQGLEWMGIINPSGGETGYAQKFQGRVTMTRDTSTSTVYMELSSLRSEDTAVYYCAKEGVADGYGLVDVWGQGTMVTVSSGGGGSGGGGSGGGGSGGGGSEIVLTQSPATLSLSPGERATLSCRASQSVSSYLAWYQQKPGQAPRLLIYDASKRATGIPARFSGSGSGTDFTLTISSLEPEDFAVYYCDQRNNWPLTFGGGTKVEIK
notes: also called single chain variable fragment PD1; PD1scFv
As to B1, the binding result in the experiment with human PD1 (hPD1) and with mouse PD1 (mPD1) was “binds” each time.
